Laboratory results as given in US20180017550.

How the values were obtained:
[1] = biological target: human p53 oncoprotein (cellular tumor antigen p53), cell-free expressed from pETBlue-2 with C-terminal HSV epitope tag and polyhistidine tag, P04637
[2] = biological target: human MDM2 (ubiquitin-protein ligase E3 MDM2), cell-free expressed with C-terminal HSV epitope tag and polyhistidine tag, Q00987
[3] = biological target: human protein kinase A catalytic subunit alpha, cell-free expressed with C-terminal HSV epitope tag and polyhistidine tag, P17612
[4] = biological target: Human casein kinase II (CK), cell-free expressed with C-terminal HSV epitope tag and polyhistidine tag

B1: human recombinant ZAP-70 tyrosine kinase (Invitrogen Corporation) (protein)
chain: MPDPAAHLPFFYGSISRAEAEEHLKLAGMADGLFLLRQCLRSLGGYVLSLVHDVRFHHFPIERQLNGTYAIAGGKAHCGPAELCEFYSRDPDGLPCNLRKPCNRPSGLEPQPGVFDCLRDAMVRDYVRQTWKLEGEALEQAIISQAPQVEKLIATTAHERMPWYHSSLTREEAERKLYSGAQTDGKFLLRPRKEQGTYALSLIYGKTVYHYLISQDKAGKYCIPEGTKFDTLWQLVEYLKLKADGLIYCLKEACPNSSASNASGAAAPTLPAHPSTLTHPQRRIDTLNSDGYTPEPARITSPDKPRPMPMDTSVYESPYSDPEELKDKKLFLKRDNLLIADIELGCGNFGSVRQGVYRMRKKQIDVAIKVLKQGTEKADTEEMMREAQIMHQLDNPYIVRLIGVCQAEALMLVMEMAGGGPLHKFLVGKREEIPVSNVAELLHQVSMGMKYLEEKNFVHRDLAARNVLLVNRHYAKISDFGLSKALGADDSYYTARSAGKWPLKWYAPECINFRKFSSRSDVWSYGVTMWEALSYGQKPYKKMKGPEVMAFIEQGKRMECPPECPPELYALMSDCWIYKWEDRPDFLTVEQRMRACYYSLASKVEGPPGSTQKAEAACA
- phosphorylation of photo-transferred protein on microarray, anti-phosphotyrosine (RC20) detection [1]: p53 is not phosphorylated by either kinase
- phosphorylation of photo-transferred protein on microarray, anti-phosphotyrosine (RC20) detection [2]: Both kinases heavily phosphorylate the MDM protein
- phosphorylation of photo-transferred protein on microarray, anti-phosphotyrosine (RC20) detection [3]: phosphorylates PKA to a very slight, nearly undetectable degree
- phosphorylation of photo-transferred protein on microarray, anti-phosphotyrosine (RC20) detection [4]: ZAP-70 does not phosphorylate CK
